Measurements as given in the Human Domainome abundance scans (Beltran et al. 2025).
± gives the uncertainty stated by the source.

B1: Apoptosis-associated speck-like protein containing a CARD, residues 114 to 194; numbered along this chain, Q9ULZ3 (parent)
chain: FIDQHRAALIARVTNVEWLLDALYGKVLTDEQYQAVRAEPTNPSKMRKLFSFTPAWNWTCKDLLLQALRESQSYLVEDLER
B2: Serine/threonine-protein kinase LATS1, residues 98 to 141; numbered along this chain, O95835 (parent)
chain: TSEVNPQMLQDLQAAGFDEDMVIQALQKTNNRSIEAAIEFISKM

Variants of: B1
Assay: abundance fitness (aPCA) (normalised: wild type 0, dead -1); higher = more abundant; growth selection in yeast, the domain comes from the species named
Conditions: Homo sapiens

Abundance fitness, by site and new letter:
L79: D -0.508 ± 0.23, I -0.455 ± 0.24, N -0.688 ± 0.38, Y -0.886 ± 0.18, K -0.857 ± 0.2, E -0.774 ± 0.18, V -0.775 ± 0.15, T -0.848 ± 0.25, G -0.882 ± 0.11, R -0.751 ± 0.074, F -0.678 ± 0.16, M -0.668 ± 0.19, Q -0.706 ± 0.17, A -0.726 ± 0.11, S -0.914 ± 0.14, W -1.06 ± 0.22
E80: Q -0.115 ± 0.084, D -0.165 ± 0.088, M -0.325 ± 0.14, R -0.461 ± 0.054, K -0.751 ± 0.21, C -0.347 ± 0.079, P -0.467 ± 0.1, H 0.018 ± 0.34, I -0.24 ± 0.31, S -0.204 ± 0.058, G -0.317 ± 0.053, T -0.172 ± 0.14, A -0.283 ± 0.079, V -0.409 ± 0.067, Y -0.532 ± 0.15
E77: G -0.481 ± 0.049, L -0.428 ± 0.08, H -0.365 ± 0.19, D -0.115 ± 0.11, Y -0.491 ± 0.14, C -0.616 ± 0.18, P -0.66 ± 0.14, M -0.244 ± 0.14, T -0.63 ± 0.19, F -0.147 ± 0.22, Q -0.124 ± 0.057, I -0.479 ± 0.18, W -0.399 ± 0.092, V -0.658 ± 0.08, A -0.209 ± 0.069
V76: G -0.587 ± 0.075, D -0.312 ± 0.12, Q -0.952 ± 0.29, I -0.056 ± 0.092, R -0.92 ± 0.13, T -0.558 ± 0.12, E -0.838 ± 0.17, W -0.611 ± 0.2, S -1.05 ± 0.25, Y -0.538 ± 0.21, L -0.27 ± 0.072, P -0.632 ± 0.1, F -0.637 ± 0.21, H -0.959 ± 0.35, A -0.698 ± 0.08, C -0.497 ± 0.15, K -0.598 ± 0.17
L75: M -0.647 ± 0.23, H -0.611 ± 0.23, S -0.669 ± 0.089, P -0.695 ± 0.1, K -0.944 ± 0.39, Q -0.651 ± 0.13, D -0.819 ± 0.28, E -0.561 ± 0.14, V -0.408 ± 0.077, T -0.924 ± 0.35, C -0.839 ± 0.28, A -0.671 ± 0.092, W -0.868 ± 0.12
D78: G -0.228 ± 0.058, A -0.286 ± 0.085, Q -0.137 ± 0.06, K -0.303 ± 0.073, T -0.34 ± 0.083, H -0.034 ± 0.12, I -0.186 ± 0.18, N -0.291 ± 0.098, P -0.687 ± 0.1, E -0.045 ± 0.094, S -0.119 ± 0.041, Y -0.218 ± 0.11, W -0.141 ± 0.06, V -0.45 ± 0.083, C -0.124 ± 0.11, L -0.167 ± 0.043
Y74: C 0.177 ± 0.084, F -0.341 ± 0.13, K 0.221 ± 0.098, Q 0.265 ± 0.062, L 0.027 ± 0.043, S 0.219 ± 0.053, A 0.202 ± 0.057, E 0.249 ± 0.11, T 0.138 ± 0.07, I -0.1 ± 0.12, D 0.21 ± 0.09, H 0.027 ± 0.09, R -0.031 ± 0.045, M -0.103 ± 0.072, N 0.139 ± 0.11, G 0.151 ± 0.048, P -0.081 ± 0.065
S73: R -0.025 ± 0.045, Y -0.167 ± 0.086, V -0.517 ± 0.077, W -0.302 ± 0.077, P 0.32 ± 0.12, Q -0.016 ± 0.11, T -0.048 ± 0.081, N -0.022 ± 0.15

Variants of: B2
Assay: as above
Conditions: Homo sapiens

Abundance fitness, by site and new letter:
A36: R -0.404 ± 0.032, Q -0.267 ± 0.056, L -0.388 ± 0.034
Q24: C -0.043 ± 0.042, N -0.146 ± 0.072, F 0.019 ± 0.13, K 0.035 ± 0.06, Y -0.222 ± 0.13, T 0.009 ± 0.044, H 0.055 ± 0.048, V -0.033 ± 0.033
Q13: A -0.131 ± 0.042, C 0.037 ± 0.049
L12: W -0.951 ± 0.057, T -0.636 ± 0.052, V -0.562 ± 0.039, S -0.616 ± 0.06, Q -0.594 ± 0.08, K -0.658 ± 0.058
M44: G -0.063 ± 0.043, C -0.037 ± 0.051, Q 0.055 ± 0.075, A -0.053 ± 0.034, W -0.232 ± 0.053
Q27: K 0.068 ± 0.044, D -0.151 ± 0.065
L26: H -0.111 ± 0.16, I -0.292 ± 0.074, Q -0.412 ± 0.05, G -0.358 ± 0.032, N -0.377 ± 0.06, M -0.559 ± 0.072
Q7: G -0.157 ± 0.033, N -0.227 ± 0.069, M -0.178 ± 0.074, P -0.796 ± 0.063
Q10: L -0.173 ± 0.034, S -0.07 ± 0.034, I -0.267 ± 0.044, K 0.013 ± 0.046, R 0.012 ± 0.037, D -0.12 ± 0.054, A 0.015 ± 0.037, W -0.295 ± 0.042
V4: W -0.561 ± 0.067, G -0.388 ± 0.035, P -0.057 ± 0.054, L -0.367 ± 0.038, N -0.204 ± 0.067, M -0.453 ± 0.054
A25: V -0.68 ± 0.05, P -0.415 ± 0.056, R -0.768 ± 0.046, W -0.728 ± 0.042, Y -0.554 ± 0.067
D18: T -0.204 ± 0.047, H -0.159 ± 0.1, K -0.117 ± 0.045
S2: W -0.174 ± 0.044, Q -0.035 ± 0.054, D -0.082 ± 0.058
I41: L -0.046 ± 0.039, S -0.217 ± 0.043, R -0.361 ± 0.031, F -0.525 ± 0.1, C -0.225 ± 0.056, K -0.255 ± 0.052, P -0.232 ± 0.06, N -0.429 ± 0.23
D11: T -0.048 ± 0.05, G -0.479 ± 0.04, R -0.134 ± 0.035, P -1.08 ± 0.15, S -0.021 ± 0.043, N -0.004 ± 0.14
T29: R -0.715 ± 0.041, V -0.191 ± 0.039, F -1.09 ± 0.16, N -0.414 ± 0.1, K -0.806 ± 0.1
K28: L -0.366 ± 0.038
F17: G -0.465 ± 0.036, S -0.495 ± 0.038, L -0.342 ± 0.038
N31: S 0.049 ± 0.038, P -0.459 ± 0.048, L -0.75 ± 0.049, M -0.484 ± 0.063
I38: Q -0.021 ± 0.048, F -0.42 ± 0.072, W -0.339 ± 0.043, K 0.055 ± 0.048, E -0.007 ± 0.048
E39: H -0.084 ± 0.082, M -0.286 ± 0.093, F -0.884 ± 0.13
N30: V -1.1 ± 0.069, R -0.103 ± 0.033
T1: G 0.023 ± 0.041, W -0.197 ± 0.054, P -0.213 ± 0.074, E 0.019 ± 0.16, Q -0.062 ± 0.1, V -0.148 ± 0.048
S33: C -0.467 ± 0.09, Y -0.735 ± 0.14, T -0.555 ± 0.063, M -0.96 ± 0.083, G -0.136 ± 0.035
A15: D -0.358 ± 0.068, Q 0.042 ± 0.056, S -0.309 ± 0.041, G -0.492 ± 0.033, E -0.308 ± 0.073, H -0.36 ± 0.11, K -0.046 ± 0.067
L9: E -0.273 ± 0.049, Q -0.124 ± 0.08, N -0.445 ± 0.12, S -0.125 ± 0.056
G16: E -0.617 ± 0.055, K -1.03 ± 0.2, P -0.687 ± 0.093, V -1.11 ± 0.085, T -0.72 ± 0.073
A14: E 0.039 ± 0.039, P -0.898 ± 0.15, M -0.151 ± 0.058, C -0.325 ± 0.053, T -0.206 ± 0.051, F -0.455 ± 0.079
K43: H 0.169 ± 0.14, L -0.117 ± 0.041, A 0.034 ± 0.036, M -0.071 ± 0.088, V -0.135 ± 0.04, G -0.036 ± 0.033
M8: K -0.485 ± 0.056, A -0.525 ± 0.051, V -0.508 ± 0.036, P -0.717 ± 0.067, Y -0.151 ± 0.044, L -0.203 ± 0.035, C -0.778 ± 0.37
E35: N -0.204 ± 0.06, D 0.005 ± 0.054, L -0.541 ± 0.059
R32: H 0.045 ± 0.078, G -0.185 ± 0.032, Y -0.222 ± 0.18, K 0.238 ± 0.1, A 0.089 ± 0.039
D20: K 0 ± 0.088, L -0.288 ± 0.037, A -0.047 ± 0.044, I -0.384 ± 0.087, Q -0.07 ± 0.075, G -0.081 ± 0.031, E 0.007 ± 0.045
E19: W -0.75 ± 0.065, D -0.154 ± 0.041, M -0.228 ± 0.05, K 0.08 ± 0.045
M21: G -0.363 ± 0.036, W -0.32 ± 0.044, C -0.126 ± 0.063, S -0.038 ± 0.038, F -0.291 ± 0.066, R -0.268 ± 0.039
V22: N -0.448 ± 0.092, Q -0.48 ± 0.065, L -0.538 ± 0.052, M -0.674 ± 0.066, R -0.623 ± 0.051
A37: C -0.376 ± 0.058, Q -0.428 ± 0.051, N -0.446 ± 0.098, D -0.43 ± 0.055, S -0.441 ± 0.05, Y -0.762 ± 0.19, T -0.391 ± 0.08
N5: W -0.828 ± 0.066, Q -0.528 ± 0.071, G -0.653 ± 0.04, L -0.878 ± 0.06, T -0.628 ± 0.063
I23: P -0.591 ± 0.095, S -0.183 ± 0.038, V 0.039 ± 0.037, G -0.322 ± 0.034, Q -0.158 ± 0.049
E3: K -0.042 ± 0.05, T -0.126 ± 0.054, I -0.529 ± 0.065
I34: E -0.068 ± 0.045, V 0.026 ± 0.034, C -0.02 ± 0.043, N -0.123 ± 0.22, S -0.189 ± 0.044
P6: E 0.07 ± 0.042, Y -0.119 ± 0.064, N 0.249 ± 0.096, V -0.032 ± 0.034, G -0.048 ± 0.031, W -0.201 ± 0.043
S42: V -0.219 ± 0.035, K 0.055 ± 0.077, G -0.002 ± 0.03, A -0.023 ± 0.033, H 0.054 ± 0.071, F -0.229 ± 0.11
F40: G -0.163 ± 0.032, W 0.075 ± 0.038, I -0.171 ± 0.057, E 0.103 ± 0.037, K -0.177 ± 0.048, P -0.157 ± 0.055
